In article PMC6382874, “Succinylation-dependent mitochondrial translocation of PKM2 promotes cell survival in response to nutritional stress” (Cell Death & Disease, 2019):

Target: T1, His-PKM2 (human, UniProt P14618 1-531)
T1 construct: Pyruvate kinase M2 (PKM2), human cDNA cloned into pET28a(+); also called His-tagged-PKM2; source: E. coli BL21, purified (Ni–agarose beads); not shown: His-tag, N-terminal, kept
Assay: pull-down; in vitro binding of His-PKM2 (2.5 μg) and GST-VDAC3, Ni–NTA agarose, western blot with anti-GST or anti-His antibody
Settings: both partners purified

T1 sequence (P14618 whole entry): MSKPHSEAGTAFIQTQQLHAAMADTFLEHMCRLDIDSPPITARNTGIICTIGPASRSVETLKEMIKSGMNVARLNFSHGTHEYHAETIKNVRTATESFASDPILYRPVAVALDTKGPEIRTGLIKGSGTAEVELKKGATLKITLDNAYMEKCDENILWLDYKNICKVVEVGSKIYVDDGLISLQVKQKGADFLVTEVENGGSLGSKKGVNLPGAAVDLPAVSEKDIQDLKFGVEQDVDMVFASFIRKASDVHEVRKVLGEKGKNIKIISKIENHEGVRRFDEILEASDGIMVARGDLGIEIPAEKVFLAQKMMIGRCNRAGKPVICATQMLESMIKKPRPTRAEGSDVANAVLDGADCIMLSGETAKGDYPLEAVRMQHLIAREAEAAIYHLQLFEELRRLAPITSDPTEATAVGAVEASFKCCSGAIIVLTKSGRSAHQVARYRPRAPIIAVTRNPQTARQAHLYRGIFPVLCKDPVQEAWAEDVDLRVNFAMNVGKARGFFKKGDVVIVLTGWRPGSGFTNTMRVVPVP

B1: GST-VDAC3 (natural protein, human, UniProt Q9Y277 1-283, looked up)
chain: MCNTPTYCDLGKAAKDVFNKGYGFGMVKIDLKTKSCSGVEFSTSGHAYTDTGKASGNLETKYKVCNYGLTFTQKWNTDNTLGTEISWENKLAEGLKLTLDTIFVPNTGKKSGKLKASYKRDCFSVGSNVDIDFSGPTIYGWAVLAFEGWLAGYQMSFDTAKSKLSQNNFALGYKAADFQLHTHVNDGTEFGGSIYQKVNEKIETSINLAWTAGSNNTRFGIAAKYMLDCRTSLSAKVNNASLIGLGYTQTLRPGVKLTLSALIDGKNFSAGGHKVGLGFELEA
notes: VDAC3, human cDNA cloned into pGEX-4T-1; also called GST-tagged-VDAC3; source: E. coli BL21, purified (GST agarose beads); the pull-down method also calls it in vitro translated; not shown: GST, N-terminal, kept
binding result: binds
